# Laboratory results published in doi:10.1101/647354 (bioRxiv, 2019).
# B1: OmCI (natural protein)
# chain: DSESDCTGSEPVDAFQAFSEGKEAYVLVRSTDPKARDCLKGEPAGEKQDNTLPVMMTFKNGTDWASTDWTFTLDGAKVTATLGNLTQNREVVYDSQSHHCHVDKVEKEVPDYEMWMLDAGGLEVEVECCRQKLEELASGRNQMYPHLKDC
# notes: also called Coversin; His-tagged OmCI
# Biological target: T1, complement C5 (human, UniProt P01031 19-673; P01031 678-1676)
# T1 construct: also called human C5; source: endogenous, human serum
# Assay: cryo-EM structure
# Conditions: both partners purified
# T1 sequence (P01031 19-673, chain 1 of 2): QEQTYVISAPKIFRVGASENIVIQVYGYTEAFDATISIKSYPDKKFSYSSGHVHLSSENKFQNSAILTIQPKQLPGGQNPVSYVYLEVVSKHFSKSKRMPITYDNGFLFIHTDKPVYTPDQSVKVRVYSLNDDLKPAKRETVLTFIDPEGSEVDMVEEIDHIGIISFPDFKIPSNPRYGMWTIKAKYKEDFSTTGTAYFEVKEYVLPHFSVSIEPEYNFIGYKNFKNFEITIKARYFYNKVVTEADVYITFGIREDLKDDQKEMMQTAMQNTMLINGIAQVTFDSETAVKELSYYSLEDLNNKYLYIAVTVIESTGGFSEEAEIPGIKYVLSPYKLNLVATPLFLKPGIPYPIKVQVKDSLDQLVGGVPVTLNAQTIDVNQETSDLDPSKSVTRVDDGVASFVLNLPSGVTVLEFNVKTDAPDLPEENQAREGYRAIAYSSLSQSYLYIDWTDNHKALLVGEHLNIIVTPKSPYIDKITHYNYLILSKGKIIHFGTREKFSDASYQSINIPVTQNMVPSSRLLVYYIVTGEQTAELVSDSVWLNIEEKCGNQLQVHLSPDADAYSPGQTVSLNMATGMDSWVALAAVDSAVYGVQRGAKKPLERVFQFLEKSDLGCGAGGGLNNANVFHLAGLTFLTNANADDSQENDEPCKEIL
# T1 sequence (P01031 678-1676, chain 2 of 2): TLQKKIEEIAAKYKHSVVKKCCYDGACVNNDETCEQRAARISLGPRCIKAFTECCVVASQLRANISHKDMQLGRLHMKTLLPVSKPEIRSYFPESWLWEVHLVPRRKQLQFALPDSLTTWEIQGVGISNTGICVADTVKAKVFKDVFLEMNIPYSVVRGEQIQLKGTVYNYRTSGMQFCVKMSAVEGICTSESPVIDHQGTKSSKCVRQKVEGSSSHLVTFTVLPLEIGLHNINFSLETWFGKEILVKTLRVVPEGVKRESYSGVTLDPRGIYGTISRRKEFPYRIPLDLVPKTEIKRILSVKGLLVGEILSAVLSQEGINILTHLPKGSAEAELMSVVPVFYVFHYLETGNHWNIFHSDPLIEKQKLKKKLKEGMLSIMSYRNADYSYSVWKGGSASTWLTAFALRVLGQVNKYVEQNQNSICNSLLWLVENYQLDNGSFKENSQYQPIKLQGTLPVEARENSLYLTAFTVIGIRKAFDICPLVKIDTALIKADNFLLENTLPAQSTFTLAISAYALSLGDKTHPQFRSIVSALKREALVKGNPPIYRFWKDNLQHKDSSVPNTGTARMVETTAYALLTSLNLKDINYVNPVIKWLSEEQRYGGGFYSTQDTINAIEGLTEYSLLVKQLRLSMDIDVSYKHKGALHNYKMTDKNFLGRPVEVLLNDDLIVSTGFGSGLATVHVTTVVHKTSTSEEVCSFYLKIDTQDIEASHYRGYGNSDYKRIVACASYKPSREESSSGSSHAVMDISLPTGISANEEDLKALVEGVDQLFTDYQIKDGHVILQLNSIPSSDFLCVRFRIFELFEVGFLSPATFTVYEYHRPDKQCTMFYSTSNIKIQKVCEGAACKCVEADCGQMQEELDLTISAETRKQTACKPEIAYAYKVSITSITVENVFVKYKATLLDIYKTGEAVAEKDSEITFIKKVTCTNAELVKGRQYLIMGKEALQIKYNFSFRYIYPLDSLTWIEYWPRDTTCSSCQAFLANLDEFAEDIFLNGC
binder,measurement,value
B1,binding result,binds
